The values that follow come from US12097241B2, “Methods of treating kidney failure, and/or improving or stablizing renal function using modified relaxin polypeptides” (BRISTOL-MYERS SQUIBB COMPANY, priority 2017, dated 2024).

“Also recorded” adds a separate entry of the source.

Data set [1] in a line: Solubility observations. Conditions: data not shown.
A short description of data set [2]: In vivo pharmacokinetic (PK) studies in rats. On the set-up: species or system Sprague-Dawley rats. Conditions: rat, male Sprague-Dawley rats, single SC dose 1.0 mg/kg, serum ELISA; for AUC(0-inf): read-out: Rat PK AUC Total; for level at time molar at 24 h: read-out: Rat PK C24. In short, it runs like this:
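Male Sprague-Dawley rats (n=3) given a single 1 mg/kg IV or SC dose of relaxin constructs in 20 mM histidine, 750 mM NaCl, pH 6.0; jugular serum sampled to 72 h. Serum relaxin by ELISA; Cmax, AUCinf, C24 and half-life from non-compartmental analysis of individual profiles.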

Data set [3] has as its system renal tubular epithelial cells. The experiment in a line: Rat toxicity studies, kidney histopathology. It counts as in vivo, Sprague Dawley rats. Particulars: rats. As for the experimental part: FIGS. 7A-7D. PEG-related renal cortical tubule epithelial vacuolation in female Sprague Dawley rats. Kidney from rats treated subcutaneously (SQ) once a day with vehicle or relaxin analogs. […] FIG. 7A: Vehicle (150 mM Arg in 10 mM citrate buffer pH 5.5) SQ for 10 days. FIG. 7B: AQ1-PEG36-Glu-C13-COOH (1.5 kD PEG) SQ at 40 mg/kg/day for 7 days. FIG. 7C: AQ1-20-kDa-PEG (20 kD PEG) SQ at 15 mg/kg/day for 10 days. FIG. 7D: AQ1-GGGGS-Glu^γ (SEQ ID NO: 139)-C14-COOH SQ at 40 mg/kg for 7 days. Magnification 40×, H&E.
AQ1-20 kDa-PEG was given to rats by subcutaneous administration at doses of 1, 5, and 15 mg/kg/day for 10 days. Following the final dose animals were euthanized, dissected, and kidney histopathology was performed. […] In contrast, vacuoles were not observed in renal tubular epithelial cells of rats dosed with Vehicle (150 mM Arg in 10 mM citrate buffer pH 5.5) subcutaneously for 10 days (FIG. 7A).
AQ1-PEG36-Glu-C13-COOH was given to rats by subcutaneous administration at doses of 10 and 40 mg/kg/day for 7 days. Following the final dose animals were euthanized, dissected, and kidney histopathology was performed.
AQ1-GGGGS-Glu^γ (SEQ ID NO: 139)-C14-COOH was given to rats by subcutaneous administration at doses of 5, 20, and 40 mg/kg/day for 7 days. Following the final dose animals were euthanized, dissected, and kidney histopathology was performed.

The conditions of data set [4]: in vivo; cited from earlier work.

As to `CC[C@H](C)[C@@H]1NC(=O)[C@H](C)NC(=O)[C@H]([C@@H](C)CC)NC(=O)[C@H](CCC(N)=O)NC(=O)[C@H](C)NC(=O)[C@H](CCCNC(=N)N)NC(=O)[C@H](C(C)C)NC(=O)[C@H](CC(C)C)NC(=O)[C@H](CCC(=O)O)NC(=O)[C@H](CCCNC(=N)N)NC(=O)CNC(=O)[C@@H](NC(=O)[C@H](CC(C)C)NC(=O)[C@H](CCCCN)NC(=O)[C@@H](NC(=O)[C@@H](NC(=O)[C@H](CCC(=O)O)NC(=O)[C@H](CCC(=O)O)NC(=O)[C@H](CCSC)NC(=O)[C@H](Cc2c[nH]c3ccccc23)NC(=O)[C@H](CO)NC(=O)[C@H](C)N)C(C)C)[C@@H](C)CC)CSSC[C@@H]2NC(=O)[C@@H](NC(=O)[C@H](CCCCN)NC(=O)[C@H](CC(N)=O)NC(=O)[C@H](C)NC(=O)[C@H](CC(C)C)NC(=O)[C@H](C)NC(=O)[C@H](CO)NC(=O)[C@H](Cc3ccc(O)cc3)NC(=O)[C@H](CC(C)C)NC(=O)[C@@H](N)Cc3ccc(/C(C)=N/OCCNC(=O)CNC(=O)CNC(=O)CNC(=O)CNC(=O)[C@H](CO)NC(=O)CC[C@H](NC(=O)CCCCCCCCCCCCCC(=O)O)C(=O)O)cc3)CSSC[C@H](NC(=O)CNC(=O)[C@H](C(C)C)NC(=O)[C@H](Cc3c[nH]cn3)NC2=O)C(=O)N[C@@H]([C@@H](C)O)C(=O)N[C@@H](CCCCN)C(=O)N[C@@H](CCCNC(=N)N)C(=O)N[C@@H](CO)C(=O)N[C@@H](CC(C)C)C(=O)N[C@@H](C)C(=O)N[C@@H](CCCNC(=N)N)C(=O)N[C@@H](Cc2ccccc2)C(=O)N[C@H](C(=O)O)CSSC[C@@H](C(=O)NCC(=O)N[C@@H](CCSC)C(=O)N[C@@H](CO)C(=O)N[C@H](C(=O)N[C@@H](Cc2c[nH]c3ccccc23)C(=O)N[C@@H](CO)C(=O)O)[C@@H](C)O)NC1=O` [AQ1-GGGGS-Glu^γ-C14-COOH], the solubility profile entry in data set [1] is “favorable solubility profile”. Further, in data set [2], the AUC(0-inf) stood at 2.31 µM·h and the level at time molar at 24 h worked out at 17 nM. The “vacuoles in renal tubular epithelial cells” value in data set [3] (subcutaneous 5, 20 and 40 mg/kg/day for 7 days, listed as AQ1-GGGGS-Glu^γ (SEQ ID NO: 139)-C14-COOH) is reported as “Vacuoles are not observed; also recorded: no evidence of test-article related vacuoles”.

With `CC[C@H](C)[C@@H]1NC(=O)[C@H](C)NC(=O)[C@H]([C@@H](C)CC)NC(=O)[C@H](CCC(N)=O)NC(=O)[C@H](C)NC(=O)[C@H](CCCNC(=N)N)NC(=O)[C@H](C(C)C)NC(=O)[C@H](CC(C)C)NC(=O)[C@H](CCC(=O)O)NC(=O)[C@H](CCCNC(=N)N)NC(=O)CNC(=O)[C@@H](NC(=O)[C@H](CC(C)C)NC(=O)[C@H](CCCCN)NC(=O)[C@@H](NC(=O)[C@@H](NC(=O)[C@H](CCC(=O)O)NC(=O)[C@H](CCC(=O)O)NC(=O)[C@H](CCSC)NC(=O)[C@H](Cc2c[nH]c3ccccc23)NC(=O)[C@H](CO)NC(=O)[C@H](C)N)C(C)C)[C@@H](C)CC)CSSC[C@@H]2NC(=O)[C@@H](NC(=O)[C@H](CCCCN)NC(=O)[C@H](CC(N)=O)NC(=O)[C@H](C)NC(=O)[C@H](CC(C)C)NC(=O)[C@H](C)NC(=O)[C@H](CO)NC(=O)[C@H](Cc3ccc(O)cc3)NC(=O)[C@H](CC(C)C)NC(=O)[C@@H](N)Cc3ccc(/C(C)=N/OCCNC(=O)CCOCCOCCOCCOCCOCCOCCOCCOCCOCCOCCOCCOCCOCCOCCOCCOCCOCCOCCOCCOCCOCCOCCOCCOCCOCCOCCOCCOCCOCCOCCOCCOCCOCCOCCOCCOCCNC(=O)CC[C@H](NC(=O)CCCCCCCCCCCCC(=O)O)C(=O)O)cc3)CSSC[C@H](NC(=O)CNC(=O)[C@H](C(C)C)NC(=O)[C@H](Cc3c[nH]cn3)NC2=O)C(=O)N[C@@H]([C@@H](C)O)C(=O)N[C@@H](CCCCN)C(=O)N[C@@H](CCCNC(=N)N)C(=O)N[C@@H](CO)C(=O)N[C@@H](CC(C)C)C(=O)N[C@@H](C)C(=O)N[C@@H](CCCNC(=N)N)C(=O)N[C@@H](Cc2ccccc2)C(=O)N[C@H](C(=O)O)CSSC[C@@H](C(=O)NCC(=O)N[C@@H](CCSC)C(=O)N[C@@H](CO)C(=O)N[C@H](C(=O)N[C@@H](Cc2c[nH]c3ccccc23)C(=O)N[C@@H](CO)C(=O)O)[C@@H](C)O)NC1=O` [AQ1-PEG36-Glu-C13-COOH], in data set [2], the AUC(0-inf) is 1 µM·h and the level at time molar at 24 h came out at 9.7 nM. Further, in data set [3] (subcutaneous 10 and 40 mg/kg/day for 7 days), the “vacuoles in renal tubular epithelial cells” value is “marked cortical tubular vacuolation; also recorded: Vacuoles were observed”.

Turning to Serelaxin, the first-phase pharmacokinetic half-life in data set [4] was 5 to 15 min.
